To fix the notation:
B1: CPEB3 Ribozyme (parent)
chain: GGGGGCCACAGCAGAAGCGUUCACGUCGCGGCCCCUGUCAGAUUCUGGUGAAUCUGCGAAUUCUGCUGU

These results are taken from the RNAGym collection of RNA variant scans (doi:10.7554/elife.80360).

This data set covers variants of B1. Nature of the data set: self-cleavage, relative activity (ratio to wild type); higher = more cleavage; co-transcriptional.
In the case of GGGGGCCACAGCAGAAGCGUUCACGCCGCGGCCCCUGUCGGAUUCUGGUGAAUCUGCGAAUUCUGCUGU [U26C A40G], the self-cleavage was determined as 0.949.

For the variant GGGGGCCACAGCAGAAGCGUUCACGCCGCGGCCCCUGUCAGAUUCUGGUGAAUCUGCGAAUUCUCCUGU [U26C G65C], the self-cleavage was 0.547.

In the case of GGGGGCCACAGCAGAAGCGUUCACGCCGCGGCCCCUGUCAGAUUCUGGUGAAUCUGCGAAUUCUACUGU [U26C G65A], the self-cleavage is 0.713.

Consider GGGGGCCACAGCAGAAGCGUUCACGCCGCGGCCCCUGUCAGAUUCUGGUGAAUUUGCGAAUUCUGCUGU [U26C C54U], for which the self-cleavage is 1.03.

With GGGGGCCACAGCAGAAGCGUUCACGCCGCGGCCCCUGUCAGAUUCUGGUGAAUAUGCGAAUUCUGCUGU [U26C C54A], the self-cleavage stood at 0.92.

On to GGGGGCCACAGCAGAAGCGUUCACGCCGCGGCCCCUGUCAGAUUCUGGUGAAUGUGCGAAUUCUGCUGU [U26C C54G], for which the self-cleavage amounted to 0.871.

Turning to GGGGGCCACAGCAGAAGCGUUCACGACGCGGCCCCUGUCAGAUUCUGGUGAAUCUGCGAACUCUGCUGU [U26A U61C], the self-cleavage worked out at 0.403.

For GGGGGCCACAGCAGAAGCGUUCACGACGCGGCCCCUGUCAGAUUCUGGUGAAUCUGCGAAGUCUGCUGU [U26A U61G], the self-cleavage worked out at 0.559.

Consider GGGGGCCACAGCAGAAGCGUUCACGCCGCGGCGCCUGUCAGAUUCUGGUGAAUCUGCGAAUUCUGCUGU [U26C C33G], for which the self-cleavage is 0.474.

In the case of GGGGGCCACAGCAGAAGCGUUCACGCCGCGGCACCUGUCAGAUUCUGGUGAAUCUGCGAAUUCUGCUGU [U26C C33A], the self-cleavage was found to be 0.826.

As to GGGGGCCACAGCAGAAGCGUUCACGCCGCGGCCCCUGUCAGAUUCUGGUGAAUCUGCGAAUUCUGCUGU [U26C], the self-cleavage came to 0.993.

Regarding GGGGGCCACAGCAGAAGCGUUCACGCCGCGGCCCCUGUCAGAUUCUGGUGAAUCUGCGAUUUCUGCUGU [U26C A60U], the self-cleavage amounted to 0.337.

GGGGGCCACAGCAGAAGCGUUCACGCCGCGGCCCCUGUCAGAUUCUGGUGAAUCUGCGACUUCUGCUGU [U26C A60C]: the self-cleavage is 0.233.

For GGGGGCCACAGCAGAAGCGUUCACGCCUCGGCCCCUGUCAGAUUCUGGUGAAUCUGCGAAUUCUGCUGU [U26C G28U], the self-cleavage turned out to be 0.139.

On to GGGGGCCACAGCAGAAGCGUUCACGCCACGGCCCCUGUCAGAUUCUGGUGAAUCUGCGAAUUCUGCUGU [U26C G28A], for which the self-cleavage was found to be 0.108.

GGGGGCCACAGCAGAAGCGUUCACGCCGCGGCCCCUGUCAGAUUCUGGUGAAUCUGCGUAUUCUGCUGU [U26C A59U]: the self-cleavage was determined as 0.677.

With GGGGGCCACAGCAGAAGCGUUCACGCCGCGGCCCCUGUCAGAUUCUGGUGAAUCUGCGCAUUCUGCUGU [U26C A59C], the self-cleavage was 0.59.

Take GGGGGCCACAGCAGAAGCGUUCACGCCGCGGCCCCUGUCAGAUUCUGGUGAAUCUGCGGAUUCUGCUGU [U26C A59G]: the self-cleavage is 1.05.

Regarding GGGGGCCACAGCAGAAGCGUUCACGACGCGGCCCCUGUCAGAUUCUGGUGAAUCUGCGAAUACUGCUGU [U26A U62A], the self-cleavage came to 0.671.

For the variant GGGGGCCACAGCAGAAGCGUUCACGACGCGGCCCCUGUCAGAUUCUGGUGAAUCUGCGAAUUCUGCUGC [U26A U69C], the self-cleavage worked out at 1.04.

On to GGGGGCCACAGCAGAAGCGUUCACGACGCGGCCCCUGUCAGAUUCUGGUGAAUCUGCGAAUUCUGCUGG [U26A U69G], for which the self-cleavage amounted to 0.977.

Consider GGGGGCCACAGCAGAAGCGUUCACGCCGCGGCCCCUGUCAGAUUCUGGUGAAUCUCCGAAUUCUGCUGU [U26C G56C], for which the self-cleavage was found to be 0.634.

Take GGGGGCCACAGCAGAAGCGUUCACGCCGCGGCCCCUGUCAGAUUCUGGUGAAUCUUCGAAUUCUGCUGU [U26C G56U]: the self-cleavage was 0.854.

For the variant GGGGGCCACAGCAGAAGCGUUCACGCCGCGGCCCCUGUUAGAUUCUGGUGAAUCUGCGAAUUCUGCUGU [U26C C39U], the self-cleavage stood at 0.85.

For GGGGGCCACAGCAGAAGCGUUCACGCCGCGGCCCCUGUGAGAUUCUGGUGAAUCUGCGAAUUCUGCUGU [U26C C39G], the self-cleavage came to 0.939.

Consider GGGGGCCACAGCAGAAGCGUUCACGCCGCGGCCCCUGUCAGAUUCUGGUGAAUCUGCGAAUUCUGCUAU [U26C G68A], for which the self-cleavage was found to be 1.03.

Regarding GGGGGCCACAGCAGAAGCGUUCACGCCGCGGCCCCUGUCAGAUUCUGGUGAAUCUGCGAAUUCUGCUUU [U26C G68U], the self-cleavage was 1.01.

For GGGGGCCACAGCAGAAGCGUUCACGCCGCGCCCCCUGUCAGAUUCUGGUGAAUCUGCGAAUUCUGCUGU [U26C G31C], the self-cleavage worked out at 0.193.

For the variant GGGGGCCACAGCAGAAGCGUUCACGCCGCGACCCCUGUCAGAUUCUGGUGAAUCUGCGAAUUCUGCUGU [U26C G31A], the self-cleavage worked out at 0.838.

With GGGGGCCACAGCAGAAGCGUUCACGCCGCGUCCCCUGUCAGAUUCUGGUGAAUCUGCGAAUUCUGCUGU [U26C G31U], the self-cleavage was found to be 0.658.

GGGGGCCACAGCAGAAGCGUUCACGCCGCGGCCCCUGUCAGAUUCUGGUGAAUCUGAGAAUUCUGCUGU [U26C C57A]: the self-cleavage worked out at 0.209.

As for GGGGGCCACAGCAGAAGCGUUCACGCCGCGGCCCCUGUCAGAUUCUGGUGAAUCUGGGAAUUCUGCUGU [U26C C57G], the self-cleavage was 0.268.

For GGGGGCCACAGCAGAAGCGUUCACGACGCGGCCCCUGUCAGAUUCUGGUGAAUCUGCGAAUUCUGCCGU [U26A U67C], the self-cleavage is 0.868.

In the case of GGGGGCCACAGCAGAAGCGUUCACGACGCGGCCCCUGUCAGAUUCUGGUGAAUCUGCGAAUUCUGCGGU [U26A U67G], the self-cleavage was 0.858.

Consider GGGGGCCACAGCAGAAGCGUUCACGCCGCGGCCCCUGUCAGAUUCUGGUGAAUCUGCAAAUUCUGCUGU [U26C G58A], for which the self-cleavage came to 0.937.

As to GGGGGCCACAGCAGAAGCGUUCACGCCGCGGCCCCUGUCAGAUUCUGGUGAAUCUGCUAAUUCUGCUGU [U26C G58U], the self-cleavage was 0.993.

Take GGGGGCCACAGCAGAAGCGUUCACGCCGCGGCCCCUGUCAGAUUCUGGUGAAUCUGCCAAUUCUGCUGU [U26C G58C]: the self-cleavage was 0.963.

GGGGGCCACAGCAGAAGCGUUCACGCCGCGGCCCCUGUCAGAUUCUGGUUAAUCUGCGAAUUCUGCUGU [U26C G50U]: the self-cleavage is 0.956.

As for GGGGGCCACAGCAGAAGCGUUCACGCCGCGGCCCCUGUCAGAUUCUGGUCAAUCUGCGAAUUCUGCUGU [U26C G50C], the self-cleavage is 1.
